Tests used:
[1] = target: LILRB2 on transduced Baf3 cells (UniProt Q8N423); test: flow cytometry on cells
[2] = target: HLA-B27 homodimer (B27 H chain dimer, β2m-free) (human); test: SPR

Row | Substance | percent reduction of bound B27 Flu NP heterotrimer tetramer over 1 hour [1] [%] | Kd [2] [nM]
1 | HLA-B27 homodimer (B27 H chain dimer, β2m-free) (complex) | 43 | 
2 | LILRB2 incorporating the two immunoglobulin-like domains D1 and D2 (domain or fragment) |  | 2500

Source: article PMC3622243
